Reference: PMC4361618, “Nab3 Facilitates the Function of the TRAMP Complex in RNA Processing via Recruitment of Rrp6 Independent of Nrd1” (PLoS Genetics, 2015)
Each block holds one binder with its values, some of them ahead of it.

B2: His-tagged full-length Rrp6 (enzyme, S. cerevisiae, UniProt Q12149 1-733, looked up)
chain: MTSENPDVLLSRVINVVRAASSLASQDVDFYKNLDRGFSKDLKSKADKLADMANEIILSIDEHHESFELKEEDISDLWNNFGNIMDNLLEMSDHSLDKLNCAINSKSRGSDLQYLGEFSGKNFSPTKRVEKPQLKFKSPIDNSESHPFIPLLKEKPNALKPLSESLRLVDDDENNPSHYPHPYEYEIDHQEYSPEILQIREEIPSKSWDDSVPIWVDTSTELESMLEDLKNTKEIAVDLEHHDYRSYYGIVCLMQISTRERDYLVDTLKLRENLHILNEVFTNPSIVKVFHGAFMDIIWLQRDLGLYVVGLFDTYHASKAIGLPRHSLAYLLENFANFKTSKKYQLADWRIRPLSKPMTAYARADTHFLLNIYDQLRNKLIESNKLAGVLYESRNVAKRRFEYSKYRPLTPSSEVYSPIEKESPWKILMYQYNIPPEREVLVRELYQWRDLIARRDDESPRFVMPNQLLAALVAYTPTDVIGVVSLTNGVTEHVRQNAKLLANLIRDALRNIKNTNEEATPIPSSETKADGILLETISVPQIRDVMERFSVLCNSNISKSRAKPVTNSSILLGKILPREEHDIAYSKDGLPNKVKTEDIRIRAQNFKSALANLEDIIFEIEKPLVVPVKLEEIKTVDPASAPNHSPEIDNLDDLVVLKKKNIQKKQPAKEKGVTEKDAVDYSKIPNILSNKPGQNNRQQKKRRFDPSSSDSNGPRAAKKRRPAAKGKNLSFKR
notes: Rrp6, S. cerevisiae nuclear exosome 3'-5' riboexonuclease, full length, cloned into pET30a-TEV; also called His-Rrp6; His6-RRP6; source: E. coli DE3 cells, purified (nickel-NTA agarose, batch)

Assays:
[1] = target: T1, TAP-tagged Nrd1 (S. cerevisiae, UniProt P53617 1-575); experiment: co-IP; TAP-tagged Nrd1 precipitated on IgG Sepharose beads from lysates of NRD1-TAP yeast cells expressing Myc-tagged Nab3 proteins; IPP150 buffer (10 mM Tris-HCl pH 8, 150 mM NaCl, 0.1% NP-40), overnight at 4°C; anti-Myc immunoblot; % bound relative to input and to bound wild-type Nab3; settings: partners not purified
T1 construct: also called Nrd1-TAP; source: S. cerevisiae NRD1-TAP strain (ACY2293; Thermo Scientific Open Biosystems), in lysate
T1 sequence (looked up): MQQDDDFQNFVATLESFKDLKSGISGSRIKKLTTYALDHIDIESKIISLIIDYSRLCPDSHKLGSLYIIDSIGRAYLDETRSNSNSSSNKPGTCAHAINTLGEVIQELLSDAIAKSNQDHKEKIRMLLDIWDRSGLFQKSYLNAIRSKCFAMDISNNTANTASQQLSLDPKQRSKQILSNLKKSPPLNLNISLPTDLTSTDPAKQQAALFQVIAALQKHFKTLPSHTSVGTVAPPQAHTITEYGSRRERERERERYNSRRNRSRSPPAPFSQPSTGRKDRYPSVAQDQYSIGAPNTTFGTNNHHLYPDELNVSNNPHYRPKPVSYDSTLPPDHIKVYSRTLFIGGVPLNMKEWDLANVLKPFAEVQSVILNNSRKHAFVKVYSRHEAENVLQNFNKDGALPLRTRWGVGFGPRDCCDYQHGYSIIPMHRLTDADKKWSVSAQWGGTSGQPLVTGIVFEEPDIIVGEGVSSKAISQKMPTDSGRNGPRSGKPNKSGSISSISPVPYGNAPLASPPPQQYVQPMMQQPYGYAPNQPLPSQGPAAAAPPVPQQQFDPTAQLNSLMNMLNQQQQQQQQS

[2] = target: T2, recombinant GST-tagged full-length Nab3 (S. cerevisiae, UniProt P38996 1-802); experiment: pull-down; 8 μg purified GST fusion incubated with 14 μg purified His-Rrp6 and glutathione Sepharose 4B in IPP100 buffer (10 mM Tris-HCl pH 8, 100 mM NaCl, 0.1% NP-40) with 10 mg/ml BSA, 2 mM DTT, 2 hr at 4°C; anti-His immunoblot; settings: both partners purified
T2 construct: Nab3, S. cerevisiae, full length, cloned into pGEX-TEV; also called GST-Nab3; source: E. coli DE3 cells, purified (glutathione Sepharose 4B, batch)
T2 sequence (looked up): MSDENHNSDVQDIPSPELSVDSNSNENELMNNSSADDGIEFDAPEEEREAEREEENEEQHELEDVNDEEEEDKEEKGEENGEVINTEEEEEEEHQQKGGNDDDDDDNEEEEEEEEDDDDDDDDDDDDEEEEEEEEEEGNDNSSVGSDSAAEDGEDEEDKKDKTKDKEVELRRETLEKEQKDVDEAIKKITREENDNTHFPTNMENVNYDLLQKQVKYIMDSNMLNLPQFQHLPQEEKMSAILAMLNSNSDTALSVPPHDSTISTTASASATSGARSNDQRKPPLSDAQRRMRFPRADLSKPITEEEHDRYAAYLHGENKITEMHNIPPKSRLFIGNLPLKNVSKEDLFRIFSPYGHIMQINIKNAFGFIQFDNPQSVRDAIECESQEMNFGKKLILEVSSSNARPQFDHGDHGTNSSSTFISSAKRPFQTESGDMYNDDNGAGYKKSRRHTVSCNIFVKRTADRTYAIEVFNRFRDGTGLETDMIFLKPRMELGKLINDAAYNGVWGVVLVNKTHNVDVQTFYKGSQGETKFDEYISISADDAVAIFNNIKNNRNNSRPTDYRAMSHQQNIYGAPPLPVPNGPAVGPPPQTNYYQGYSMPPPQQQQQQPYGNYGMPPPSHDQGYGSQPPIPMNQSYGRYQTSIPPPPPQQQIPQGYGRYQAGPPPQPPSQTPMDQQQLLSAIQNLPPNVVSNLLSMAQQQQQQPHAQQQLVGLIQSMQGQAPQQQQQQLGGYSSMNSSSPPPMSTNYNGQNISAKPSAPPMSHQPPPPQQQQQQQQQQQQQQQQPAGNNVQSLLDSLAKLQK

[3] = target: B2; experiment: as above; settings: both partners purified

% bound relative to wild-type Nab3 [1]: 8%
B1: Myc-tagged nab3-ΔNBD mutant (Δ204–248) (natural protein, S. cerevisiae, UniProt P38996 1-802, looked up)
chain: MSDENHNSDVQDIPSPELSVDSNSNENELMNNSSADDGIEFDAPEEEREAEREEENEEQHELEDVNDEEEEDKEEKGEENGEVINTEEEEEEEHQQKGGNDDDDDDNEEEEEEEEDDDDDDDDDDDDEEEEEEEEEEGNDNSSVGSDSAAEDGEDEEDKKDKTKDKEVELRRETLEKEQKDVDEAIKKITREENDNTHFPTNMSDTALSVPPHDSTISTTASASATSGARSNDQRKPPLSDAQRRMRFPRADLSKPITEEEHDRYAAYLHGENKITEMHNIPPKSRLFIGNLPLKNVSKEDLFRIFSPYGHIMQINIKNAFGFIQFDNPQSVRDAIECESQEMNFGKKLILEVSSSNARPQFDHGDHGTNSSSTFISSAKRPFQTESGDMYNDDNGAGYKKSRRHTVSCNIFVKRTADRTYAIEVFNRFRDGTGLETDMIFLKPRMELGKLINDAAYNGVWGVVLVNKTHNVDVQTFYKGSQGETKFDEYISISADDAVAIFNNIKNNRNNSRPTDYRAMSHQQNIYGAPPLPVPNGPAVGPPPQTNYYQGYSMPPPQQQQQQPYGNYGMPPPSHDQGYGSQPPIPMNQSYGRYQTSIPPPPPQQQIPQGYGRYQAGPPPQPPSQTPMDQQQLLSAIQNLPPNVVSNLLSMAQQQQQQPHAQQQLVGLIQSMQGQAPQQQQQQLGGYSSMNSSSPPPMSTNYNGQNISAKPSAPPMSHQPPPPQQQQQQQQQQQQQQQQPAGNNVQSLLDSLAKLQK
notes: also called nab3 NBD mutant; nab3-NBD; source: S. cerevisiae (NRD1-TAP, RRP6-TAP or DIS3-TAP cells), 2μ URA3 plasmid, in lysate; not shown: 2xMyc, C-terminal, kept

Binder: B2
binding result [2]: binds

binding result [3]: binds
B3: GST-tagged Rrp47 (natural protein, S. cerevisiae, UniProt P38801 1-184, looked up)
chain: MEDIEKIKPYVRSFSKALDELKPEIEKLTSKSLDEQLLLLSDERAKLELINRYAYVLSSLMFANMKVLGVKDMSPILGELKRVKSYMDKAKQYDNRITKSNEKSQAEQEKAKNIISNVLDGNKNQFEPSISRSNFQGKHTKFENDELAESTTTKIIDSTDHIRKASSKKSKRLDKVGKKKGGKK
notes: Rrp47, S. cerevisiae exosome cofactor; RRP47 gene amplified (W303 gDNA template) and cloned into pGEX-TEV; also called GST-Rrp47; source: E. coli DE3 cells, purified (glutathione Sepharose 4B, batch)
